# Results published in publication PMC5433836 (Biochemistry, 2016).
# “Also recorded” adds a separate entry of the source. Where two headings read alike, the source gives them in different places. Where no end group is shown, it is not given here. The star is where a group is joined. RhodamineB = CCN(CC)c1ccc2c(-c3ccccc3C(=O)*)c3ccc(=[N+](CC)CC)cc-3oc2c1
# What was measured:
# [1] = target: Crumbs CTD (UniProt P10040); conditions: cited from earlier work
# [2] = tested on: Par-6 PDZ^156–255; test: 1H-15N HSQC NMR titration of PDZ^156–255 with peptide; assay type: binding, D. melanogaster; conditions: 25 °C, 0.1–0.25 mM 15N-labeled protein, 90% H2O/10% D2O, pH 5.5
# [3] = target: Pals1 (UniProt Q8N3R9); conditions: cited from earlier work
# Sequence of Pals1 (Q8N3R9 whole entry): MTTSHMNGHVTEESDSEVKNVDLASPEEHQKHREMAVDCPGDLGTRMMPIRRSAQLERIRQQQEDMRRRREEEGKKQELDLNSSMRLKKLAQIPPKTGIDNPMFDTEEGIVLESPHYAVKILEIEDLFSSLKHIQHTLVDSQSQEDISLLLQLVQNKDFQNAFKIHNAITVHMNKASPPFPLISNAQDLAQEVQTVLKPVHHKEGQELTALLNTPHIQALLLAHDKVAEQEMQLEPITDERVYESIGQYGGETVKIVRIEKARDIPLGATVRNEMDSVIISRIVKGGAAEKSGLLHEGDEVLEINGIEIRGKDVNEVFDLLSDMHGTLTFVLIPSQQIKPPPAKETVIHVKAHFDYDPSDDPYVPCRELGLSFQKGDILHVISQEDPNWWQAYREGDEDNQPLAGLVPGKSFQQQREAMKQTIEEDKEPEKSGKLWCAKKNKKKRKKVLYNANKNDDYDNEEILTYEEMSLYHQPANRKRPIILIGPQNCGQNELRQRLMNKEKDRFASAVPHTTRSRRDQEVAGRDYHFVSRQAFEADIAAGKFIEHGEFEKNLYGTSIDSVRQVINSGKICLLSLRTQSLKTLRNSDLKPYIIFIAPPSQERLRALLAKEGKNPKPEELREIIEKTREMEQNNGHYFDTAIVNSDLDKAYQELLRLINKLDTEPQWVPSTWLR
# [4] = target: disulfide-stabilized Par-6 CRIB-PDZ (CRIB-PDZ^Q144C/L164C) (D. melanogaster); test: ITC
# [5] = target: Par-6; conditions: Cdc42-GTP:Par-6; cited from earlier work
# [6] = target: Cdc42:CRIB-PDZ^130–255 complex (Cdc42 loaded with GMPPNP) ( | D. melanogaster, UniProt P60953 1-191; O97111 130-255); test: fluorescence polarisation
# [7] = target: Par-6 CRIB-PDZ module (CRIB-PDZ^130–255) (D. melanogaster) (UniProt O97111); test: fluorescence polarisation
# [8] = target: Par-6 PDZ domain (residues 156–255) (D. melanogaster) (UniProt O97111); test: fluorescence polarisation
# [9] = target: Par-6 CRIB-PDZ module (CRIB-PDZ^130–255) (D. melanogaster) (UniProt O97111); test: fluorescence polarisation; remark: listed apart in the source
# [10] = target: disulfide-stabilized Par-6 CRIB-PDZ (CRIB-PDZ^Q144C/L164C) (D. melanogaster); test: fluorescence polarisation
# Sequence of Par-6 CRIB-PDZ (Q9NPB6 126-253): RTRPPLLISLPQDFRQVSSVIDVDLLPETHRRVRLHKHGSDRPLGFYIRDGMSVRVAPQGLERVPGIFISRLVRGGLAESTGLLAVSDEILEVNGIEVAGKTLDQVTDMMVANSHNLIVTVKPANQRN
# Sequence of Pals1 PDZ-SH3-GK (Q8N3R9 236-675): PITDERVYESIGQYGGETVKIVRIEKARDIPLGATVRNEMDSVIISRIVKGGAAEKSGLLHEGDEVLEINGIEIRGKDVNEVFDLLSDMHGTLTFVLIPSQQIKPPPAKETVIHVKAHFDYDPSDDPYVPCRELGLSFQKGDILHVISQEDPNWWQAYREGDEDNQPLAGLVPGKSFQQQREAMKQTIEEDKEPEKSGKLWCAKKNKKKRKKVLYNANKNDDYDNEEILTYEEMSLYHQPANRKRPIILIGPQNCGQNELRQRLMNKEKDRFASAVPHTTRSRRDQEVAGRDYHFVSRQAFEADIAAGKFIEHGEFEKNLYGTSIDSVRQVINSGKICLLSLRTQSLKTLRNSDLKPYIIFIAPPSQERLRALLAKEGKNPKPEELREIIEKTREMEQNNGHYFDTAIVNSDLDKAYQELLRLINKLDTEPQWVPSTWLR
# Sequence of Crumbs CTD (P10040 2110-2146): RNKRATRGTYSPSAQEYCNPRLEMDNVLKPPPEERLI
molecule,measurement,setting,value
Pals1 PDZ-SH3-GK (from UniProt Q8N3R9),Kd,[1],0.1 µM
LPPEERLI [LPPEERLI],HSQC titration behaviour / binding mode,[2],"Significant shifts were observed for many amino acids in and near the PDZ ligand binding cleft; also recorded: consistent with binding at a second, low affinity site"
Par-6 CRIB-PDZ (from UniProt Q9NPB6),Kd,[3],6 µM
VKESLV peptide,Kd,[4],17 µM
same,dH,[4],-3.4 kcal/mol
same,stoichiometry N,[4],1.09
Cdc42-GTP: monomeric GTPase Cdc42 bound to GTP; binds the CRIB module of Par-6,Kd,[5],~0.05 µM
same,binding energy,[5],~ 10 kcal/mol
RhodamineB-GEERLI [N-terminally Rhodamine B-labeled GEERLI peptide],Kd,[6],1.2 µM
same,Kd,[7],7.2 µM
same,Kd,[8],12 µM
same,Kd,[9],7.3 µM
same,Kd,[10],2.5 µM
GEERLI [modified Crumbs peptide lacking the proline residues (GEERLI)],Kd,[4],1.9 µM
same,dH,[4],-7.21 kcal/mol
same,stoichiometry N,[4],1.05
RhodamineB-VKESLV [N-terminally Rhodamine B-labeled VKESLV peptide],Kd,[6],6 µM
same,Kd,[8],72 µM
same,Kd,[9],54 µM
same,Kd,[10],13 µM
